The assay deals with SARS-CoV-2 Spike Protein (RBD)(R319-F541).mmH, unmodified (SARS-CoV-2). The assay is described as follows: Luminex, supernatant on bead-coupled RBD.mmH. The conditions noted are these: remark: other sources report otherwise.

B1: mAb11006 (antibody, V domains shown)
VH: EVQLVESGGGLVQPGGSLRLSCAASGFIVSRNYMSWVRQAPGKGLEWVSVIYSGGSTFYADSVKGRFTISRHNSKNTLYLQMNSLKAEDTAVYYCARELRGYFDYWGQGTLVTVSS
VL: DIQLTQSPSFLSASVGDRVTITCWASQGISSYLAWYQQKPGKAPKLLIYAASTLQSGVPSRFSGSGSGTEFTLTISSLQPEDFATYYCQLLNSYPYTFGQGTKLEIK
In turn, B1 came in with a Binding signal (MFI) of 2040 MFI.

These data come from patent US20220356230A1.
